Data published in article PMC7568252, “Recombinant expression of an L‐amino acid oxidase from the fungus Hebeloma cylindrosporum in Pichia pastoris including fermentation” (MicrobiologyOpen, 2020).

Legend:
Assay in all cases: purified protein
Details in all cases: untreated (not acid-activated) enzyme, 50 mM TEA/HCl pH 7.0, 30°C
purified protein [1] = substrate: CC(C)C[C@H](N)C(=O)O
purified protein [2] = substrate: COC(=O)[C@@H](N)CC(C)C
purified protein [3] = substrate: CSCC[C@H](N)C(=O)O
purified protein [4] = substrate: NC(=O)CC[C@H](N)C(=O)O
purified protein [5] = substrate: N[C@@H](Cc1ccccc1)C(=O)O

B1: 9-hcLAAO4 (9His-hcLAAO4) (Hebeloma cylindrosporum) (protein)
chain: ADTTSVPFDAESRDQIFQHHARSVISGYTNTLGEKNISVPSSPPGGERVGILGAGIGGLYSALILQSLDVPFEIIEASNRVGGRLFTHKFPNGGKYDYYDVGAMRYPLPKSDDKGNYQPGVMQRVGQLFTYLGMHKQLIPYYFKSNKSPGFQYFNGVRARIGEGSSFDAPALGINSSLIDIGVTKIVNDAVGPFAQALFDDLQKHTTTGWDDMMKNDAYSTRSYFSFKYLPSPSFGLPSEHFSTRVINWLETFDKSTGWYDRGLTETVLEAIAFGEVGDGEVDWRCIDGGSHVLPDTIAAFLHKKGGNAFVMNASVTAIGLENPNKEDSPMVVVAGGQKRKYSHVISTLPLPVLRTVDLKNSKLDIVQSNALRKLQYGPSIKIGILFKEPWWTTGQDKNGEKFDLVGGQSYTDLPIRTVVYPSYGVNTNAPSNTLIASYCWTNDAERMGSLIGTGKKTYEEQLEHLVLSNLAAVHNTDYQYLKDRLVDVHSWDWNHNPLTMGAFAFFGPGDFQDLYTSLNRPAANGKLHFAGEALSVRHAWVVGALDSAWRAVYNYLYVTDPAKLPKFFELWGKNAEWFEQPGDGKEPNSDNSLLEKFVRRTHGTVSV
Question: How did the Km (purified protein [1]) turn out when B1 was run?
Answer: 0.04 ± 0.04 mM

Question: And the Vmax (purified protein [1])?
Answer: 7.67 µmol/min/mg

Question: What about the Km (purified protein [2]) of the same protein?
Answer: 3.01 ± 0.68 mM

Question: What about the Vmax (purified protein [2]) of the same protein?
Answer: 8.41 µmol/min/mg

Question: And the Km (purified protein [3])?
Answer: 0.16 ± 0.10 mM

Question: And the Vmax (purified protein [3])?
Answer: 5.98 µmol/min/mg

Question: And the Km (purified protein [4])?
Answer: 0.51 ± 0.11 mM

Question: And the Vmax (purified protein [4])?
Answer: 8.87 µmol/min/mg

Question: What about the Km (purified protein [5]) of the same protein?
Answer: 0.07 ± 0.07 mM

Question: What about the Vmax (purified protein [5]) of the same protein?
Answer: 3.25 µmol/min/mg
